According to US20070105925A1:

Tests used:
[1] = biological target: human recombinant (hr) ACE2 (human) (UniProt Q9BYF1); assay: cell-based or functional assay
[2] = test system: T1, 7-methoxycoumarin-Tyr-Val-Ala-Pro-(2,4-dinitrophenyl)Lys
T1 sequence: YVAPK

Sequence of human recombinant (hr) ACE2 (human) (Q9BYF1 18-740 limits assumed): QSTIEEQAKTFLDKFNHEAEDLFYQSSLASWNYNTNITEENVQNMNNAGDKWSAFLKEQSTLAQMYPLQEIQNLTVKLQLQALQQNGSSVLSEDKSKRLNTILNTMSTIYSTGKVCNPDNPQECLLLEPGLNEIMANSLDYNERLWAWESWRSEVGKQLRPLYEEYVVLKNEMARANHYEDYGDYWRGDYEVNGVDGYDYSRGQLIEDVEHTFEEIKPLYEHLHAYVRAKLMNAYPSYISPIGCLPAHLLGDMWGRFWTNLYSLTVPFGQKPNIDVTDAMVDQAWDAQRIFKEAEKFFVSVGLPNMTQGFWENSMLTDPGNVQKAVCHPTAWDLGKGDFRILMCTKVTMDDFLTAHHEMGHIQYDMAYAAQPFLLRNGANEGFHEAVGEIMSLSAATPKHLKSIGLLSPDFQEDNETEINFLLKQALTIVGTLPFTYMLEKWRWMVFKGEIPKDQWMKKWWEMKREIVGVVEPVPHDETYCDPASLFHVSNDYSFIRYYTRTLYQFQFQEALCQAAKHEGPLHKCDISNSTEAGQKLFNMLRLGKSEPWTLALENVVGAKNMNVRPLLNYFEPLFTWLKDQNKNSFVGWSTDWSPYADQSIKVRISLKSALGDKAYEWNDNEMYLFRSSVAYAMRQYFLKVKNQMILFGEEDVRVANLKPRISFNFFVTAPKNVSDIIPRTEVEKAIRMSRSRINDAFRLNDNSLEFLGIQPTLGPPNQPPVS

| quenching of the fluorescence signal from cleavage of 7-Mca-YVADAPK(Dnp) by hrACE2 (enzyme inhibition) [1] [nmol/L] | Substance | fluorescence from cleavage of the substrate, hACE2 spiked into kidney extract of an ACE2-knockout mouse [2] |
| --- | --- | --- |
| 100 | DX600 (peptide) |  |
|  | human recombinant (hr) ACE2 | the fluorescence signal was recovered in a dose dependent manner, with a linear relationship (r=0.990, p<0.001) in the range of 0.4 to 50 ng ACE2 protein/well |
